The source of these data is doi:10.1101/2024.12.18.629111 (bioRxiv, 2024).

The target of one data set is T1, CBP-Upf1-CH-HD (S. cerevisiae, UniProt P30771 54-851).
T1 sequence (looked up): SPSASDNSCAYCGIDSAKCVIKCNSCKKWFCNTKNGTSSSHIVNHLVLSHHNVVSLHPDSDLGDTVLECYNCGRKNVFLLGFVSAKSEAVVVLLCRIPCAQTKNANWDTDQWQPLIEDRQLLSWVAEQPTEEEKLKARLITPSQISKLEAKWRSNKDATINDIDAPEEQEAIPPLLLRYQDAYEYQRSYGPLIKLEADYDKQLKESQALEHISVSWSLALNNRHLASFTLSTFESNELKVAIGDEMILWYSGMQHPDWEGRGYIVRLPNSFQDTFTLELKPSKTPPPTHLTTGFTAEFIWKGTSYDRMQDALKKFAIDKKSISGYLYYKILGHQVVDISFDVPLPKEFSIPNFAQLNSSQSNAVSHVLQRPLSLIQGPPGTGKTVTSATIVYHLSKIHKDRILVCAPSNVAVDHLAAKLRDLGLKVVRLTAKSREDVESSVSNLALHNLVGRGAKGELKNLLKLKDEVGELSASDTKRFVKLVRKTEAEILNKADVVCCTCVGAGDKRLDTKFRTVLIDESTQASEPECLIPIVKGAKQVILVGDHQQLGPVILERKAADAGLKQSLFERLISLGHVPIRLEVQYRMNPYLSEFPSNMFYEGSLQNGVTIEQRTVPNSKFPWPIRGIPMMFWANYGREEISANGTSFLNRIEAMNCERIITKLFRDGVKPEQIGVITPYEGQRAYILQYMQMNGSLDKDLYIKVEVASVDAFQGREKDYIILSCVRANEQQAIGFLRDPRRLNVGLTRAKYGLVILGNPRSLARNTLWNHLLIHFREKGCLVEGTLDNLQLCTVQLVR
Kind of data set: native gel or EMSA. (In general: Mobility shift assays separate free from complexed probe on a gel.)

Another data set deals with T2, CBP-Upf1-FL (S. cerevisiae, UniProt P30771 1-971).
T2 sequence (looked up): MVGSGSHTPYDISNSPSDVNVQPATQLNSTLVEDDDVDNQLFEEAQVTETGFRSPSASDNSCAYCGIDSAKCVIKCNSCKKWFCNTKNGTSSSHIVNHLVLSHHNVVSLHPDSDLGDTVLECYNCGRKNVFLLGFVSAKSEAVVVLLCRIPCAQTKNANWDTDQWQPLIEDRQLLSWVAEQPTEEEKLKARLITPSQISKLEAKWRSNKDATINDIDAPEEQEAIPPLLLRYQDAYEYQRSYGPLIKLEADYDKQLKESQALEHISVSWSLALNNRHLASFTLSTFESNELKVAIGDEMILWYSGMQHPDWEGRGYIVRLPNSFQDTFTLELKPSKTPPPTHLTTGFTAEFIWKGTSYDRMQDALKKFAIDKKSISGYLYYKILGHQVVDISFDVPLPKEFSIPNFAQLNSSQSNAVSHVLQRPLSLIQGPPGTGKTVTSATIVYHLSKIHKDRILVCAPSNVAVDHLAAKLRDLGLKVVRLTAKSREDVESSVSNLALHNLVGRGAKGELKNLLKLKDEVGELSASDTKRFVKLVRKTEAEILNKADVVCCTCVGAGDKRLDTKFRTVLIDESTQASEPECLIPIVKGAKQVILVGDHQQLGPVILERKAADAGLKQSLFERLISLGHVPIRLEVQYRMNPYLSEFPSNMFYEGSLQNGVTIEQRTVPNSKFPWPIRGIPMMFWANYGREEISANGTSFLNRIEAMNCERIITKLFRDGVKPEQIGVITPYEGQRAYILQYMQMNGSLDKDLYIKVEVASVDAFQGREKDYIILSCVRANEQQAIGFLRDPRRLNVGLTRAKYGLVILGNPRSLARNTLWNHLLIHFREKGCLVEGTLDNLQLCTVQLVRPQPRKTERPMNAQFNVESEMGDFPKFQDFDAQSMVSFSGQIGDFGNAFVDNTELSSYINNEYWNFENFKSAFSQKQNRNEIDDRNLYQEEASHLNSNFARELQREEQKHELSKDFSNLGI
Kind of data set: pull-down.

Data set [1] deals with the molecule itself. Put plainly: SDS-PAGE band of the dimer.
Data set [2] deals with T3, FITC-labeled Dcp2-UBD2 peptide (aa 694-718) (S. cerevisiae, UniProt P53550 694-718, FITC on the N-terminus).
T3 peptide (looked up): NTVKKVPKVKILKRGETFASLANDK
Kind of data set: fluorescence polarisation. For orientation: In fluorescence polarisation assays a small probe gives low polarisation when free and higher when bound to something large.

The target of data set [3] is T4, FITC-labeled Dcp2-UBD1 peptide (aa 456-479) (S. cerevisiae, UniProt P53550 456-479, FITC on the N-terminus).
T4 peptide (looked up): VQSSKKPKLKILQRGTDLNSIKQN
Put plainly: fluorescence polarisation.

The target in another data set is T5, Upf2(933-1089)-His (S. cerevisiae, UniProt P38798 933-1089).
T5 sequence (looked up): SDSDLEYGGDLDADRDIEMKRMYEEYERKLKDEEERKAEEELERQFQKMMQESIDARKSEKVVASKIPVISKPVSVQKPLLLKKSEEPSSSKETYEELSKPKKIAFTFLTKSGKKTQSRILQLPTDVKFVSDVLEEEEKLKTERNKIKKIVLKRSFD
Kind of data set: fluorescence polarisation.

B1: His-tagged Nmd4 (natural protein, S. cerevisiae, UniProt Q12129 1-218, looked up)
chain: MTQYNFIIDASAFEKGLGNIKRWCSDCTEAVTLNFYIPTFTLNELDFLQQRRKSFAARESLKFIDRLDDSKFANLKVFIEFPEVLDIILWSDVMEHNDSSGKINIAKLPKRLKNLLKSCIYKCYLEGNEGLHWFLISEDPQIREMAMQCNIPSCSIVDVDSILSKDMNDKSFRESEKFNNMMLKNGTKEESENGREIIRTNFNKTVYASRGTGELWSP
For the molecule B1, the binding result with CBP-Upf1-CH-HD and with CBP-Upf1-FL was “binds” each time.

B2: CBP-Upf1-CH-His (domain or fragment)
chain: SPSASDNSCAYCGIDSAKCVIKCNSCKKWFCNTKNGTSSSHIVNHLVLSHHNVVSLHPDSDLGDTVLECYNCGRKNVFLLGFVSAKSEAVVVLLCRIPCAQTKNANWDTDQWQPLIEDRQLLSWVAEQPTEEEKLKARLITPSQISKLEAKWRSNKDATINDIDAPE
B2: in data set [1], the stoichiometry N (commonly a count of units in the complex or per binding partner) was 2. Besides, the Kd (in general, a measure of binding affinity in units of concentration) in data set [2] came to 25.1 µM; in data set [3], 60.1 µM; with Upf2(933-1089)-His, 0.43 µM.
